Measured values from patent publication US20060134709A1.

Assays:
soluble FcγRIIB (human) = soluble FcγRIIB (human) (UniProt P31994); assay: ELISA
[1] = target: soluble monomeric FcγRIIIA-linker-AVITAG (human) (UniProt P08637); assay: ELISA

| fold increase vs wt (soluble FcγRIIB (human)) [x] | fold increase vs wt [1] [x] | Substance | other results |
| --- | --- | --- | --- |
| 7.2 | 1.9 | ch4-4-20 "term is M, P396L" (antibody) | – |
| 6 | 1.5 | ch4-4-20 A231V, Q386H, V412M (antibody) | – |
| – | 0.5 | ch4-4-20 A378V, N390I, V422I (antibody) | – |
| 6 | 2.5 | ch4-4-20 D221Y, M252I, A330G, A339T, T359N, V422I, H433L (antibody) | – |
| – | 3 | ch4-4-20 D280E, S354F, A431D, L441I (antibody) | – |
| – | 0.5 | ch4-4-20 D312E, K327N, I378S (antibody) | – |
| – | – | ch4-4-20 D399E, M428L (antibody) | fold decrease vs wt (soluble FcγRIIB (human)): 0.5 x; fold decrease vs wt [1]: 0.5 x |
| 0.5 | – | ch4-4-20 D399E, R292L, V185M (antibody) | – |
| – | 0.5 | ch4-4-20 D401V (antibody) | – |
| 4 | 0.5 | ch4-4-20 E216D, E345K, S375I (antibody) | – |
| – | 1.5 | ch4-4-20 E233D, K334E (antibody) | – |
| 4 | 1.25 | ch4-4-20 E258D, N384K (antibody) | – |
| 4.9 | 1.9 | ch4-4-20 E258D, P396L (antibody) | – |
| 2.5 | 2 | ch4-4-20 F241L, E258G (antibody) | – |
| – | 1 | ch4-4-20 F243L, R255L, E318K (antibody) | – |
| 5.4 | 1.6 | ch4-4-20 F243L, V305I, A378D, F404S, P396L (antibody) | – |
| – | 0.5 | ch4-4-20 F275I, K334N, V348M (antibody) | – |
| 3.7 | 2.2 | ch4-4-20 F275L, Q362H, N384K, P396L (antibody) | – |
| – | 3 | ch4-4-20 F275Y (antibody) | – |
| 0.75 | 1 | ch4-4-20 G385E, P247H (antibody) | – |
| – | 0.5 | ch4-4-20 H224L (antibody) | – |
| – | 1.5 | ch4-4-20 H268D, E318D (antibody) | – |
| 13.7 | 3.8 | ch4-4-20 H268D, P396L (antibody) | – |
| – | 0.5 | ch4-4-20 H310Y, T289A, G337E (antibody) | – |
| 0.5 | 1.5 | ch4-4-20 I377F (antibody) | – |
| – | – | ch4-4-20 I377N (antibody) | fold decrease vs wt [1]: 0.5 x |

| fold increase vs wt (soluble FcγRIIB (human)) [x] | fold increase vs wt [1] [x] | Substance | other results |
| --- | --- | --- | --- |
| 4.6 | 1.9 | ch4-4-20 K210M, P396L (antibody) | – |
| 8.7 | 2.7 | ch4-4-20 K210N, K222I, K320M, P396L (antibody) | – |
| – | 3.5 | ch4-4-20 K218R, G281D, G385R (antibody) | – |
| – | 1 | ch4-4-20 K222N (antibody) | – |
| 7 | 1 | ch4-4-20 K222N, T335N, K370E, A378V, T394M (antibody) | – |
| – | – | ch4-4-20 K246I, Q362H, K370E (antibody) | fold decrease vs wt (soluble FcγRIIB (human)): 0.5 x |
| 4.8 | 1.1 | ch4-4-20 K246N, Q419R, P396L (antibody) | – |
| – | 1 | ch4-4-20 K246R, S298N, I377F (antibody) | – |
| 2.5 | 1 | ch4-4-20 K246T, P396H (antibody) | – |
| – | 1 | ch4-4-20 K246T, Y319F (antibody) | – |
| – | 1 | ch4-4-20 K288N, K326N (antibody) | – |
| 6.7 | 1.3 | ch4-4-20 K290E, V369A, T393A, P396L (antibody) | – |
| 6 | 0.25 | ch4-4-20 K290T, G371D (antibody) | – |
| 6.1 | 2.8 | ch4-4-20 K290T, N390I, P396L (antibody) | – |
| 7 | 2.5 | ch4-4-20 K317N, F423-deleted (antibody) | – |
| – | 1 | ch4-4-20 K320E, K326E (antibody) | – |
| – | 0.5 | ch4-4-20 K326E, G385E (antibody) | – |
| 5.9 | 2.9 | ch4-4-20 K326I, P396L (antibody) | – |
| 9.3 | 4 | ch4-4-20 K326I, S408N, P396L (antibody) | – |
| – | 1.5 | ch4-4-20 K326Q, K334E, T359N, T366S (antibody) | – |
| – | 2.5 | ch4-4-20 K334E (antibody) | – |
| 4.5 | 1.5 | ch4-4-20 K334E, E380D (antibody) | – |
| – | 1 | ch4-4-20 K334E, T359N, T366S, Q386R (antibody) | – |
| – | 1 | ch4-4-20 K334I (antibody) | – |
| – | 0.5 | ch4-4-20 K334N (antibody) | – |
| – | 3.1 | ch4-4-20 K334N, P396L (antibody) | – |

| fold increase vs wt (soluble FcγRIIB (human)) [x] | fold increase vs wt [1] [x] | Substance | other results |
| --- | --- | --- | --- |
| 6.6 | 2 | ch4-4-20 K370E, P396L (antibody) | – |
| 3.5 | 1 | ch4-4-20 K370N, S440N (antibody) | – |
| – | – | ch4-4-20 K414N (antibody) | fold decrease vs wt [1]: 0.25 x |
| – | 2 | ch4-4-20 L235P, V382M, S304G, V305I, V323I (antibody) | – |
| 4.1 | 2.5 | ch4-4-20 L242F, P396L (antibody) | – |
| 4.2 | 1.9 | ch4-4-20 L358P, P396L (antibody) | – |
| – | 1.5 | ch4-4-20 L398V (antibody) | – |
| 4.5 | 1.7 | ch4-4-20 L410H, P396L (antibody) | – |
| 0.75 | – | ch4-4-20 N315I (antibody) | – |
| 9 | 1 | ch4-4-20 N315I, V379M, T394M (antibody) | fold vs wt (soluble FcγRIIB (human)): 9 X; fold vs wt [1]: 1 X |
| 5.2 | 2.2 | ch4-4-20 N384K, P396L (antibody) | – |
| 4.8 | 1.5 | ch4-4-20 P217A, T359A, P396L (antibody) | – |
| 4.5 | 2 | ch4-4-20 P217S, A378V, S408R (antibody) | – |
| 7 | 2 | ch4-4-20 P217S, V305I, I309L, N390H, P396L (antibody) | – |
| 0.5 | 1 | ch4-4-20 P227S, K290E (antibody) | – |
| 4 | 1.5 | ch4-4-20 P227S, P396L (antibody) | – |
| 1.5 | 1.75 | ch4-4-20 P244H, L358M, V379M, N384K, V397M (antibody) | – |
| 4 | 2.5 | ch4-4-20 P244H, P396L (antibody) | – |
| 4 | 0.5 | ch4-4-20 P247L (antibody) | – |
| – | 0.75 | ch4-4-20 P247L, A330T, S440G (antibody) | fold decrease vs wt (soluble FcγRIIB (human)): 0.25 x |
| – | – | ch4-4-20 P247L, A431V, S442F (antibody) | fold vs wt [1]: 1 x |
| 9 | 1.5 | ch4-4-20 P247L, E389G (antibody) | – |
| 2.5 | 3 | ch4-4-20 P247L, I253N, K334N (antibody) | – |
| – | 1 | ch4-4-20 P247L, I377F (antibody) | – |
| – | 1.25 | ch4-4-20 P247L, L398Q (antibody) | – |
| – | 1.5 | ch4-4-20 P247L, W313R, E388G (antibody) | – |

| fold increase vs wt (soluble FcγRIIB (human)) [x] | fold increase vs wt [1] [x] | Substance | other results |
| --- | --- | --- | --- |
| 4.2 | 1.2 | ch4-4-20 P247S, P396L (antibody) | – |
| – | – | ch4-4-20 P291S, K288E, H268L, A141V (antibody) | fold decrease vs wt [1]: 0.5 x |
| – | – | ch4-4-20 P291S, P353Q (antibody) | fold decrease vs wt (soluble FcγRIIB (human)): 0.25 x; fold decrease vs wt [1]: 0.5 x |
| 6 | 0.5 | ch4-4-20 P343S, P353L, S375I, S383N (antibody) | – |
| – | 1 | ch4-4-20 P396H (antibody) | – |
| – | 1 | ch4-4-20 P396L (antibody) | – |
| – | 0.5 | ch4-4-20 Q347H, A339V (antibody) | – |
| 6.9 | 2 | ch4-4-20 Q419H, P396L (antibody) | – |
| 6.1 | 2.2 | ch4-4-20 Q419L, P396L (antibody) | – |
| 6 | 1.8 | ch4-4-20 R255L, P396L (antibody) | – |
| – | 2 | ch4-4-20 R255Q, K326E (antibody) | – |
| – | – | ch4-4-20 R301C, M252L, S192T (antibody) | fold decrease vs wt [1]: 0.5 x |
| – | – | ch4-4-20 R301H, K340E, D399E (antibody) | fold decrease vs wt (soluble FcγRIIB (human)): 0.25 x; fold decrease vs wt [1]: 0.5 x |
| – | 1 | ch4-4-20 S219Y (antibody) | – |
| – | 2 | ch4-4-20 S298N, W381R (antibody) | – |
| – | 0.5 | ch4-4-20 S383N, N384K, T256N, V262L, K218E, R214I, K205E, F149Y, K133M (antibody) | – |
| – | 1.5 | ch4-4-20 T256S, V305I, K334E, N390S (antibody) | – |
| – | 0.5 | ch4-4-20 T335N, K370E, A378V, T394M, S424L (antibody) | – |
| – | – | ch4-4-20 T335N, P387S, H435Q (antibody) | fold vs wt [1]: 1.25 x |
| – | 0.5 | ch4-4-20 T394M, V397M (antibody) | – |
| – | 1 | ch4-4-20 V279L, P395S (antibody) | – |
| – | 1 | ch4-4-20 V282M (antibody) | – |
| – | – | ch4-4-20 V284A, F372L (antibody) | fold vs wt [1]: 1 x |
| – | 0.25 | ch4-4-20 V397M, T411A, S415N (antibody) | – |
